B2: OtDUBGEF (residues 548-759), His-tagged construct (domain or fragment)
chain: ERLVKKVTSNLETELKFFKGRLVQELMQIVKNENGRIDHTSKNWQESASVLLNSQEKGAVSLAEVERAVSKMTQKLRDQKVSEEEVVNIESKLKFERASLEAKLFDDNEIKELINKRIKEDALRAIPFLGSDSESFMEKISPFVKLPDDSYSLLKANDKHHPFQNILYSNALKFFADSSDIGYLNDDSLKNLTPENLNAFEQAVAADIDKLM
notes: source: E. coli BL21(DE3), purified (Ni-NTA, Superdex 75)

Experiment [1] concerns the target T1, Rac1 (residues 1-177), recombinant (human, UniProt P63000 1-177). The experiment can be described thus: pull-down; GST-tagged OtDUB fragments (20 μM) as bait and Rac1 (60 µM) as prey, 50 mM Tris-HCl pH 7.5, 150 mM NaCl, 0.1 mM TCEP, glutathione resin 1 h at 4°C; Coomassie. The note with it: both partners purified.
Experiment [2] addresses T1, Rac1 (residues 1-177), recombinant. The experiment can be described thus: ITC. The note with it: both partners purified.
Experiment [3] has the same target. The experiment can be described thus: cell-based or functional assay.
Experiment [4] deals with B2. As to the kind of experiment: ITC. The following applies: both partners purified.

B1: GST-OtDUB C-terminal truncation (275-913) (domain or fragment)
chain: SAEVSSKEELYVPKINQVEESLEAQLKYINEHIASQLMQIVKNSNGEIDCNSSNFQEEVSSLLNSRSKETTSLATIEQNFNEIIQQLRKEKVNEERVSAIELQLKANRAVLEAKLSNTEDVKSLVNQKIKEETLQAIPFFGNAAERANFKKHLAHFVKLPDNSYSLLKQKEKRHPFCNIIGANAVKFFSPQSNAVYLNTSAYNQITSGNLKAFEAAVTTDINNLMLKEAAVTIDAVSPNKEAVESGKDLSKTDELAELKEVKSNLETELKILKERLVKKVTSNLETELKFFKGRLVQELMQIVKNENGRIDHTSKNWQESASVLLNSQEKGAVSLAEVERAVSKMTQKLRDQKVSEEEVVNIESKLKFERASLEAKLFDDNEIKELINKRIKEDALRAIPFLGSDSESFMEKISPFVKLPDDSYSLLKANDKHHPFQNILYSNALKFFADSSDIGYLNDDSLKNLTPENLNAFEQAVAADIDKLMSRDVTLNVSDLKSYVANSPNPDLIADYLALEWQIHTPGLKGLYDDLQASHQLQLNELENKHAKQLLSDLANLSKLPSMRGILPEFKDEFYNEIDKKPEERSVEYKNFINKCSELPDAMLQPAKCSAQALLEFNKYERDLNSFKQGVFCAIDNYK
notes: OtDUB (ORF OTT_1962), Orientia tsutsugamushi Ikeda isolate; pGEX6P1 construct; source: E. coli Rosetta DE3, purified (glutathione resin)
B1: the binding result in experiment [1] is “binds”. With B2, in experiment [2], the Kd is about 5 µM. For the same molecule, the “kcat/KM of BODIPY-GDP dissociation from Rac1 with increasing amounts of OtDUBGEF” value in experiment [3] is 260000 M⁻¹ s⁻¹.

B3: GST-OtDUBGEF E561A (domain or fragment)
chain: ERLVKKVTSNLETALKFFKGRLVQELMQIVKNENGRIDHTSKNWQESASVLLNSQEKGAVSLAEVERAVSKMTQKLRDQKVSEEEVVNIESKLKFERASLEAKLFDDNEIKELINKRIKEDALRAIPFLGSDSESFMEKISPFVKLPDDSYSLLKANDKHHPFQNILYSNALKFFADSSDIGYLNDDSLKNLTPENLNAFEQAVAADIDKLM
notes: OtDUB (ORF OTT_1962), Orientia tsutsugamushi Ikeda isolate; also called switch I (E561A) mutant; source: E. coli Rosetta DE3, purified (glutathione resin)
In the case of B3, the binding result in experiment [1] is recorded as “binds”.

B4: GST-OtDUBGEF N590A/E593A (domain or fragment)
chain: ERLVKKVTSNLETELKFFKGRLVQELMQIVKNENGRIDHTSKAWQASASVLLNSQEKGAVSLAEVERAVSKMTQKLRDQKVSEEEVVNIESKLKFERASLEAKLFDDNEIKELINKRIKEDALRAIPFLGSDSESFMEKISPFVKLPDDSYSLLKANDKHHPFQNILYSNALKFFADSSDIGYLNDDSLKNLTPENLNAFEQAVAADIDKLM
notes: OtDUB (ORF OTT_1962), Orientia tsutsugamushi Ikeda isolate; also called switch II (N590A/E593A) mutant; source: E. coli Rosetta DE3, purified (glutathione resin)
Take B4: the binding result in experiment [1] was “binds”.

B5: Cdc42 (residues 1-177), recombinant (domain or fragment)
chain: not shown
B5: the Kd in experiment [4] is about 16 µM.

As usually defined, the Kd is a measure of binding affinity in units of concentration.

Source of the values: doi:10.1101/2020.06.04.133876 (bioRxiv, 2020).
